Experiments:
PBMC (T cells) = test: Reprogramming of T cells to Treg cells, flow cytometry of CD4 and CD25 in PBMC; type: cell-based, human; conditions: 10, 50 or 100 μg/ml
Experimental: 100 ml of healthy human blood was collected from a donor and the peripheral blood mononuclear cells (PBMCs) were isolated by density-gradient centrifugation using Histopaque-1077 (Sigma-Aldrich, St Louis, Mo.). The PBMC/mono^− were cultured in […] plates (Becton Dickinson, Gaithersburg, Md.) supplemented with 10% FBS, nonessential amino acids, 2 mM glutamine, 1 mM sodium pyruvate, 25 mM HEPES, 200 units/ml penicillin, and streptomycin at 37° C. and 5% CO2. After 1 hour of culture, Foxp3 (10 μg/ml, 50 μg/ml, 100 μg/ml) were added to the cells. BSA (100 μg/ml) was added to another well as control. Same concentration of the Foxp3 or BSA was added after cultured two days. Following 5 days of culture, the cells were washed with PBS twice. The cells were re-suspended in 100 μL diluted and added rabbit anti-human CD25 for 90 minutes. The cells were washed three time with cold 1×PBS supplied 2% FBS and then the conjugated-PE mouse anti-human CD4 as well as conjugated-FITC goat anti-rabbit IgG were added to the cells for 60 minutes in ice. Conjugated-PE mouse IgG and rabbit IgG were incubated with another group cells as Isotype control. The cells were washed with PBS for flow cytometric analysis using a Beckman Coulter FC500 cytometer with Cytomics CXP software (Beckman Coulter, Fullerton, Calif.) (FIGS. 14-17).

PBMC/mono- (T cells) = test: Reprogramming of T cells to Treg cells, flow cytometry of CD4 and CD25 in PBMC lacking CD14 monocytes; type: cell-based, human; conditions: 10, 20 or 50 μg/ml
Experimental: 100 ml of healthy human blood was collected from a donor and the peripheral blood mononuclear cells (PBMCs) were isolated by density-gradient centrifugation using Histopaque-1077 (Sigma-Aldrich, St Louis, Mo.). CD14+ monocytes were removed by magnetic bead selection (Miltenyi Biotec, Auburn, Calif.). Briefly, […] PBMCs were incubated with 200 μL anti-CD14 microbeads (Miltenyi Biotec) in ice for 30 minutes. The cells were washed with cold 1×PBS with 2% FCS and centrifuged at 300 g for 10 minutes and then resuspended in 1×PBS with 2% FCS. The cell suspension was applied to the magnetic column and unbinding cells were passed through by washing 3 times with 1×PBS with 2% FCS. The PBMC/mono- were harvested by centrifuged at 300 g for 10 minutes.
The PBMC/mono- were cultured in 6-well plates (Becton Dickinson, Gaithersburg, Md.) supplemented with 10% FBS, nonessential amino acids, 2 mM glutamine, 1 mM sodium pyruvate, 25 mM HEPES, 200 units/ml penicillin, and streptomycin at 37° C. and 5% CO2. After 1 hour of culture, His6-Foxp3-11R (10 μg/ml, 20 μg/ml, or 50 μg/ml) was added to the cells. BSA (100 μg/ml) was added to another well as control. Same concentration of His6-Foxp3-11R or BSA was added after cultured for two days. After 5 days of culture, the cells were washed with PBS twice. The cells were re-suspended in 100 μL diluted and added rabbit anti-human CD25 for 90 minutes. […]

[1] = added again after two days, 5 days of culture

B1: His6-Foxp3-11R: His6-tagged Foxp3 fused to 11R, SEQ ID NO: 33 (protein)
chain: MGSSHHHHHHSSGLVPRGSHMPNPRPGKPSAPSLALGPSPGASPSWRAAPKASDLLGARGPGGTFQGRDLRGGAHASSSSLNPMPPSQLQLPTLPLVMVAPSGARLGPLPHLQALLQDRPHFMHQLSTVDAHARTPVLQVHPLESPAMISLTPPTTATGVFSLKARPGLPPGINVASLEWVSREPALLCTFPNPSAPRKDSTLSAVPQSSYPLLANGVCKWPGCEKVFEEPEDFLKHCQADHLLDEKGRAQCLLQREMVQSLEQQLVLEKEKLSAMQAHLAGKMALTKASSVASSDKGSCCIVAAGSQGPVVPAWSGPREAPDSLFAVRRHLWGSHGNSTFPEFLHNMDYFKFHNMRPPFTYATLIRWAILEAPEKQRTLNEIYHWFTRMFAFFRNHPATWKNAIRHNLSLHKCFVRVESEKGAVWTVDELEFRKKRSQRPSRCSNPTPGPESGGGGSPGRRRRRRRRRRR
modifications: transducible material
Question: How did the “dose dependence of the increase of CD4+CD25+T cells” value (PBMC (T cells)) turn out when B1 was run?
Answer: The value was “protein-dose dependent”.

Question: And the “CD4+CD25+T cells (Treg cells)” value (PBMC (T cells); [1])?
Answer: Its value is “dramatically increased”.

Question: And the “dose dependence of the increase of CD4+CD25+T cells” value (PBMC/mono- (T cells))?
Answer: The value was “protein-dose dependent”.

Question: And the “CD4+CD25+T cells (Treg cells)” value (PBMC/mono- (T cells); [1])?
Answer: Its value is “dramatically increased”.

Source: patent US20130097717A1, “COMPOSITIONS AND METHODS FOR RE-PROGRAMMING CELLS WITHOUT GENETIC MODIFICATION FOR TREATMENT OF CARDIOVASCULAR DISEASES” (VIVOSCRIPT, INC., priority 2010, published 2013)
